Measured values as given in paper PMC9982451.

T1: SBDMmo (sulfur binding domain of Type IV REase MmoMcrA) (Morganella morganii)
T1 chain: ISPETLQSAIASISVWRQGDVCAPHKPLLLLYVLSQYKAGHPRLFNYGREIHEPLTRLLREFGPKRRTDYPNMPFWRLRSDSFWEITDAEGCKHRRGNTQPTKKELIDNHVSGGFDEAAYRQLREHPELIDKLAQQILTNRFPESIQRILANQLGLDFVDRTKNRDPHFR

B1: PT-dsDNA GGCC-10F/10R (dsDNA)
DNA 1: GTCGGCCCCA
DNA 2: TGGGGCCGAC
modifications: phosphorothioate between G4 and G5 of strand 1 (hemi-PT; stereochemistry not stated)
B2: PT-ssDNA GGCC-10F (ssDNA)
DNA: GTCGGCCCCA
modifications: phosphorothioate between G4 and G5 (stereochemistry not stated)

Target: T1, SBDMmo (sulfur binding domain of Type …)
Test: EMSA

| Binder | binding result |
| --- | --- |
| B1 | binds |
| B2 | no binding |
